Drawing on patent US20190256588A1 (BEIJING HANMI PHARM, published 2019), this text covers EC50 for eight molecules.

Assay [1] concerns the target T1, recombinant human IL-17A (human, UniProt Q16552 24-155).
T1 construct: also called IL-17A antigen
Put plainly: ELISA, recombinant human IL-17A coated at 1 µg/mL, HRP anti-mouse IgG, OD450nm. The protocol:
The plate was washed five times with PBST. […] The plate was washed five times with PBST. […] The plate was washed five times with PBST. 100 μL/well of colorimetric substrate TMB was added and incubated at room temperature for 10 minutes. Color development was terminated by adding 100 μL/well of 1 M H₂SO₄. The absorbance at 450 nm was read on a microplate reader.
(ELISA stands for enzyme-linked immunosorbent assay.)

For assay [2], the target named is T1, recombinant human IL-17A. Put plainly: ELISA, recombinant human IL-17A coated at 1 µg/mL, HRP anti-human IgG, OD450nm. The protocol: The antigen binding activity of humanized anti-human IL-17A monoclonal antibody was determined by ELISA. Recombinant human IL-17A (purchased from Sino Biological Inc.) was coated on a 96-well high-absorbing ELISA plate with a carbonate buffer solution with pH 9.6, the coating concentration was 1 μg/mL, the coating amount was 100 μL per well, and the coating was carried at 4° C. out overnight. The plate was washed five times with PBST and blocked with 300 μL/well of PBST containing 1% BSA and incubated at 25° C. for 1 hour. The plate was washed five times with PBST. […] The plate was washed five times with PBST. Then, horseradish peroxidase-labeled anti-human IgG antibody (Chemicon, Catalog Number AP309P) 1:2000 diluted in PBST containing 1% BSA was added, 100 μL was added to each well, incubated at 25° C. for 1 hour. The plate was washed five times with PBST. 100 μL/well of colorimetric substrate TMB was added and incubated at room temperature for 10 minutes. Color development was terminated by adding 100 μL/well of 1 M H2SO₄. The absorbance at 450 nm was read on a microplate reader.

T1 sequence (Q16552 24-155 limits assumed): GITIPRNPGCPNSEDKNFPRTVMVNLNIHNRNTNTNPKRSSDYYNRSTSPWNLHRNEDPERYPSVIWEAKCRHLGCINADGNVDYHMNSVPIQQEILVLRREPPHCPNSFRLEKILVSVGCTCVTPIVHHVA

B1: monoclonal antibody secreted by Clone No. 88 (antibody, V domains shown)
VH: DVQVQESGPGLVKPSQSLSLTCTVTGNSITSYYAWNWIRQFPGNKLEWMGYITYSGTTSYNPSLKSRISITRDTSKNQFFLQLNSVTTEDTATYYCAREEYDDIYAVDYWGQGTSVTVSS
VL: IIVMTQTPLSLPVSLGDQASISCRSSQSLVHSNGNTYLHWYLQKPGQSPKLLIYKVYNRFSGVPDRFSGSGSGTDFTLKISRVEAEDLGVYFCSQSTHFPTFGGGTKLEIK
notes: Murine hybridoma antibody tested as culture supernatant; also called murine anti-human IL-17A monoclonal antibody
Regarding B1, the EC50 (commonly the concentration giving half of the maximal effect) in assay [1] was determined as 0.165 nM.

B2: anti-human IL-17A humanized monoclonal antibody AS15799 (antibody, human IgG1, kappa, V domains shown)
VH: QVQVQESGPGLVKPSETLSLTCTVSGNSITSYYAWNWIRQPPGKGLEWMGYITYSGTTSYNPSLKSRVTISRDTSKNQFSLKLSSVTAADTAVYYCAREEYDDIYAVDYWGQGTLVTVSS
VL: IIVMTQSPLSLPVTLGQPASISCRSSQSLVHSNGNTYLHWYQQRPGQSPRRLIYKVYNRFSGVPDRFSGSGSGTDFTLKISRVEAEDVGVYYCSQSTHFPTFGQGTRLEIKR
As to B2, the EC50 in assay [2] stood at 0.091 nM.

B3: anti-human IL-17A humanized monoclonal antibody AS15820 (antibody, human IgG1, kappa, V domains shown)
VH: QVQLQESGPGLVKPSETLSLTCTVSGNSITSYYAWNWIRQPPGKGLEWMGYITYSGTTSYNPSLKSRVTISVDTSKNQFSLKLSSVTAADTAVYYCAREEYDDIYAVDYWGQGTLVTVSS
VL: DIVMTQSPLSLPVTLGQPASISCRSSQSLVHSNGNTYLHWYQQRPGQSPRLLIYKVYNRFSGVPDRFSGSGSGTDFTLKISRVEAEDVGVYFCSQSTHFPTFGQGTRLEIKR
Regarding B3, the half-maximal effective concentration (EC50) in assay [2] is 0.089 nM.

B4: anti-human IL-17A humanized monoclonal antibody AS15810 (antibody, human IgG1, kappa, V domains shown)
VH: QVQVQESGPGLVKPSETLSLTCTVSGNSITSYYAWNWIRQPPGKGLEWMGYITYSGTTSYNPSLKSRVTISVDTSKNQFSLKLSSVTAADTAVYYCAREEYDDIYAVDYWGQGTLVTVSS
VL: DVVMTQSPLSLPVTLGQPASISCRSSQSLVHSNGNTYLHWYQQRPGQSPRLLIYKVYNRFSGVPDRFSGSGSGTDFTLKISRVEAEDVGVYYCSQSTHFPTFGQGTRLEIKR
In the case of B4, the EC50 in assay [2] turned out to be 0.083 nM.

B5: anti-human IL-17A humanized monoclonal antibody AS15815 (antibody, human IgG1, kappa, V domains shown)
VH: QVQVQESGPGLVKPSETLSLTCTVSGNSITSYYAWNWIRQPPGKGLEWMGYITYSGTTSYNPSLKSRITISRDTSKNQFSLKLSSVTAADTAVYYCAREEYDDIYAVDYWGQGTLVTVSS
VL: DVVMTQSPLSLPVTLGQPASISCRSSQSLVHSNGNTYLHWFQQRPGQSPRLLIYKVYNRFSGVPDRFSGSGSGTDFTLKISRVEAEDVGVYYCSQSTHFPTFGQGTRLEIKR
On to B5, for which the concentration giving a half-maximal response (EC50) in assay [2] amounted to 0.077 nM.

B6: anti-human IL-17A humanized monoclonal antibody AS15803 (antibody, human IgG1, kappa, V domains shown)
VH: QVQVQESGPGLVKPSETLSLTCTVSGNSITSYYAWNWIRQPPGKGLEWMGYITYSGTTSYNPSLKSRITISVDTSKNQFSLKLSSVTAADTAVYYCAREEYDDIYAVDYWGQGTLVTVSS
VL: IIVMTQSPLSLPVTLGQPASISCRSSQSLVHSNGNTYLHWYQQRPGQSPRLLIYKVYNRFSGVPDRFSGSGSGTDFTLKISRVEAEDVGVYFCSQSTHFPTFGQGTRLEIKR
Take B6: the EC50 in assay [2] turned out to be 0.087 nM.

B7: anti-human IL-17A humanized monoclonal antibody AS15805 (antibody, human IgG1, kappa, V domains shown)
VH: QVQVQESGPGLVKPSETLSLTCTVSGNSITSYYAWNWIRQPPGKGLEWMGYITYSGTTSYNPSLKSRITISRDTSKNQFSLKLSSVTAADTAVYYCAREEYDDIYAVDYWGQGTLVTVSS
VL: DIVMTQSPLSLPVTLGQPASISCRSSQSLVHSNGNTYLHWYQQRPGQSPRRLIYKVYNRFSGVPDRFSGSGSGTDFTLKISRVEAEDVGVYYCSQSTHFPTFGQGTRLEIKR
Consider B7, for which, in assay [2], the EC50 was 0.082 nM.

B8: anti-human IL-17A humanized monoclonal antibody AS15802 (antibody, human IgG1, kappa, V domains shown)
VH: QVQLQESGPGLVKPSETLSLTCTVSGNSITSYYAWNWIRQPPGKGLEWMGYITYSGTTSYNPSLKSRVTISRDTSKNQFSLKLSSVTAADTAVYYCAREEYDDIYAVDYWGQGTLVTVSS
VL: IIVMTQSPLSLPVTLGQPASISCRSSQSLVHSNGNTYLHWYQQRPGQSPRLLIYKVYNRFSGVPDRFSGSGSGTDFTLKISRVEAEDVGVYFCSQSTHFPTFGQGTRLEIKR
As to B8, the EC50 in assay [2] is 0.088 nM.
